In IntAct's records for PubMed 29954986:

B1: Protein patched homolog 1 (Homo sapiens), Q13635-1 (parent)
chain: MASAGNAAEPQDRGGGGSGCIGAPGRPAGGGRRRRTGGLRRAAAPDRDYLHRPSYCDAAFALEQISKGKATGRKAPLWLRAKFQRLLFKLGCYIQKNCGKFLVVGLLIFGAFAVGLKAANLETNVEELWVEVGGRVSRELNYTRQKIGEEAMFNPQLMIQTPKEEGANVLTTEALLQHLDSALQASRVHVYMYNRQWKLEHLCYKSGELITETGYMDQIIEYLYPCLIITPLDCFWEGAKLQSGTAYLLGKPPLRWTNFDPLEFLEELKKINYQVDSWEEMLNKAEVGHGYMDRPCLNPADPDCPATAPNKNSTKPLDMALVLNGGCHGLSRKYMHWQEELIVGGTVKNSTGKLVSAHALQTMFQLMTPKQMYEHFKGYEYVSHINWNEDKAAAILEAWQRTYVEVVHQSVAQNSTQKVLSFTTTTLDDILKSFSDVSVIRVASGYLLMLAYACLTMLRWDCSKSQGAVGLAGVLLVALSVAAGLGLCSLIGISFNAATTQVLPFLALGVGVDDVFLLAHAFSETGQNKRIPFEDRTGECLKRTGASVALTSISNVTAFFMAALIPIPALRAFSLQAAVVVVFNFAMVLLIFPAILSMDLYRREDRRLDIFCCFTSPCVSRVIQVEPQAYTDTHDNTRYSPPPPYSSHSFAHETQITMQSTVQLRTEYDPHTHVYYTTAEPRSEISVQPVTVTQDTLSCQSPESTSSTRDLLSQFSDSSLHCLEPPCTKWTLSSFAEKHYAPFLLKPKAKVVVIFLFLGLLGVSLYGTTRVRDGLDLTDIVPRETREYDFIAAQFKYFSFYNMYIVTQKADYPNIQHLLYDLHRSFSNVKYVMLEENKQLPKMWLHYFRDWLQGLQDAFDSDWETGKIMPNNYKNGSDDGVLAYKLLVQTGSRDKPIDISQLTKQRLVDADGIINPSAFYIYLTAWVSNDPVAYAASQANIRPHRPEWVHDKADYMPETRLRIPAAEPIEYAQFPFYLNGLRDTSDFVEAIEKVRTICSNYTSLGLSSYPNGYPFLFWEQYIGLRHWLLLFISVVLACTFLVCAVFLLNPWTAGIIVMVLALMTVELFGMMGLIGIKLSAVPVVILIASVGIGVEFTVHVALAFLTAIGDKNRRAVLALEHMFAPVLDGAVSTLLGVLMLAGSEFDFIVRYFFAVLAILTILGVLNGLVLLPVLLSFFGPYPEVSPANGLNRLPTPSPEPPPSVVRFAMPPGHTHSGSDSSDSEYSSQTTVSGLSEELRHYEAQQGAGGPAHQVIVEATENPVFAHSTVVHPESRHHPPSNPRQQPHLDSGSLPPGRQGQQPRRDPPREGLWPPPYRPRRDAFEISTEGHSGPSNRARWGPRGARSHNPRNPASTAMGSSVPGYCQPITTVTASASVTVAVHPPPVPGPGRNPRGGLCPGYPETDHGLFEDPHVPFHVRCERRDSKVEVIELQDVECEERPRGSSSN

Variants of: B1
Settings: with shh_human SHH

Effect of a mutation on the interaction, disrupting interaction:
T500F;P504L
L282Q
G509V
D513Y
L282Q;T500F;P504L
